Measured values published in the RNAGym collection of RNA variant scans (doi:10.7554/elife.90254).

B1: OR4K15 (parent)
chain: GUUAACGGUCAUAGGCCAUGGAAACUAGGAGCACCAUUUCGCUGCCAGUGAAGAAAUGAACAAAGAAAAUCUGGGCCAGGCAGGCAUCAAAAGAAAUAGUCUUGCGCUCAACCAGAAAGUCUGUAAUCAUUUUAAGGGUA

Variants of: B1
Assay: self-cleavage, relative activity (ratio to wild type); higher = more cleavage; in vitro, sequencing; the parent is a self-cleaving ribozyme

Variant | self-cleavage
A82U A134G | 0.16
A60C U130C | 1.4
A18G A114C | 0.05
U19C A82U | 0.21
A30G G137U | 0.71
U9G A135U | 0.85
A52G G80U | 0.12
A96U U139C | 1.15
U70C A126G | 0.96
A24G A89C | 1.51
A67U A92G | 2.2
U2A A51G | 0.51
U19A A56G | 1.6
A27G U38C | 1.12
C16U A69U | 0.66
U49C U87A | 2.09
U57C A114C | 0.04
A68G A90G | 1.17
U9C A23U | 1.07
U9C U103A | 1.9
G44A U124C | 0.45
G20A U102A | 0.58
A63G A82G | 0.74
A47U U49A | 0.97

Variant | self-cleavage
A62C A78C | 0.31
A24G A64G | 1.01
A36U A94G | 1.44
A111G G138U | 0.01
A94C U103C | 0.38
A30G U39A | 0.39
A30G C109A | 0.23
U43C A116G | 0.53
A114C A117G | 0.05
A63U U131C | 1.33
A36C A69C | 1.47
A52U C101U | 0.19
U39A A78G | 0.35
U38G A118G | 0.95
G74C A140G | 0.23
G41A | 1.67
A86C C109U | 0.25
A23U A30G | 1.09
A56G A95G | 1.69
A30G A89U | 1.09
A30G A89G | 0.71
A27U A118G | 1.21
C17U A110U | 1.55
U3A A52U | 0.58

Variant | self-cleavage
A23U G136A | 0.85
A51G U122A | 1.85
A68G U127A | 1.01
A30U U39A | 2.07
A82G G138A | 0.49
A22G | 1.09
A4G A89G | 1.34
A63U A69G | 0.49
G84A U102G | 1.29
U87C G138A | 1.2
U38A A78G | 0.26
U43A A51U | 1.28
A24U A135U | 0.83
A18G U87A | 1.14
U26C A69G | 1.46
A18U A27G | 1.13
U9A A98G | 0.34
U3C A55G | 1.1
G58U A111G | 0.02
A5G C107U | 0.02
A60U A140U | 1.59
G20A A24G | 0.1
A95G A96G | 1.25
U57C A86U | 1.93

Variant | self-cleavage
A98G | 0.44
U49G U122C | 0.39
A24G A33U | 1.73
U102A G138A | 0.55
U9A A27G | 0.47
A18U A96G | 1.62
C42A A91U | 0.86
A92G U139G | 1.3
A55G U108G | 0.03
A96U U131C | 2.32
U49C A95G | 1
A23U A66G | 1.16
A60G C128U | 1.12
A67U A95G | 2.49
C25U A110U | 0.57
U39C A56C | 0.43
U43C A140G | 1.95
A66U A126G | 1.05
U37C A86G | 1.47
A62U U130C | 0.84
U102C U103C | 0.21
A13G A54G | 0.81
A117U U131G | 1.38
C40U A52G | 1.54

Variant | self-cleavage
U108C A134C | 0.01
U3C U26A | 1.76
U131C G137A | 0.07
A11U A96G | 1.31
A90G U124C | 0.78
U49C A135U | 2.28
U19G A110G | 0.2
A30G A96G | 1.25
A60G A90G | 0.4
A60G C109A | 0.21
A23G A36C | 1.41
G93A U108A | 0.02
G65A A118G | 1.57
G31A C105U | 0.25
A30G U100A | 0.49
U131C A134G | 0.73
U26C A110C | 0.25
U12C A90U | 0.94
A67G A82G | 0.6
U120C A129G | 0.63
A67U U120A | 2.17
A82G A89G | 0.45
A62U A86G | 1.88
U3C U19C | 1.88

Variant | self-cleavage
A23G U102C | 1.87
A95G A114G | 1.17
U9C U108G | 0.06
A69U U103C | 0.51
G48A A59U | 0.86
A11G U87A | 1.05
G75U C85U | 0.21
A78U U108A | 0.01
A30U C81U | 0.51
A55G A135G | 1.57
A54G A116G | 0.75
G48A A82U | 0.12
A60G A98G | 0.55
U139G | 1.1
U9C U120G | 1.39
A59G A60G | 0.59
A66C A92G | 1.21
A78G A98C | 0.27
A89C A134G | 1.16
U39G A125G | 0.62
G7A A59G | 1.46
A22U A89G | 1.31
A51G A114G | 1.1
A86U U102A | 1.36

Variant | self-cleavage
A54G U122C | 1
C77A A78G | 0.53
A64U A78G | 0.47
C6U C77U | 0.34
A33G A129C | 0.63
U37C U108A | 0.04
A82C | 0.07
U3G A5C | 1.53
A36U U132C | 1.2
A60G A140U | 1.06
G8C | 1.16
A55G C76A | 0.55
U12C A89G | 1.35
G7A U108C | 0
C32U C121U | 2.22
A54U U100A | 0.59
U102A A126G | 0.43
U3C A62G | 0.96
A54G A98U | 2.61
U9C C45U | 1.07
U108A A114U | 0
U19C G48A | 1.61
A78G A140G | 0.32
G7U A114G | 0.16

Variant | self-cleavage
U37C A69G | 1.17
A30G C112A | 0.02
U38C A118G | 1.14
A64G A126G | 1.05
A36G G136U | 1.95
U3C U72C | 0.25
C40G A134G | 0.82
A11U A52U | 1.54
U9C G136A | 2.13
U2C U132A | 1.23
U38C A94G | 0.74
U37G A62G | 1.44
G104A A110U | 0.02
A36G A54G | 0.96
U43A U57C | 1.15
U130C G136U | 1.19
A47G A78U | 0.14
A4G U19C | 1.78
A11C U122C | 1.46
U103A A110G | 0.2
G7A U70A | 1.94
A95G U124A | 0.8
U12A A36C | 1.82
A11U A55G | 0.82

Variant | self-cleavage
A114U U130C | 0.01
A54G A82U | 0.26
U3G A59G | 0.68
U72C A140G | 0.34
U87C A96G | 1.81
G44A A63C | 2.07
A30C A116G | 0.89
A52G U108A | 0.02
A63G U133C | 1.18
G7A U87C | 1.25
A67U A94G | 1.22
U26C U87C | 0.37
U12C G84C | 0.31
A23G A95U | 2.26
A116G U122C | 0.4
A69G G83A | 2.11
A27U U39A | 1.49
A30G G106A | 0.07
A62G A78U | 0.19
A54G C105A | 0.06
A92G A126U | 0.78
A125U A126G | 1.04
A36G U133C | 2.18
U9C U57A | 1.6

Variant | self-cleavage
U103C A110U | 0.79
A56G C128U | 0.54
A63G A129U | 0.61
U103A A116U | 0.2
A22U U120C | 0.48
A11G A36G | 0.8
C40U U131C | 1.93
U12C U132C | 0.2
U12C G28A | 1.29
C109U A125G | 0.17
A92G U133C | 1.59
A59C U127A | 1.3
A60G U87A | 1.02
A4G A92G | 1.18
U38C A47C | 1.99
U2G A69U | 0.94
U12A U70A | 0.56
A82U A125C | 0.29
G7A U12C | 1.33
U37C C101A | 0.22
A89G U100G | 2.03
U72G C101A | 0.1
A60G U108C | 0.03
A67G G74U | 0.24

Variant | self-cleavage
G44U A52U | 0
A114U A117G | 0.04
U43C U122A | 1.34
U97A U103C | 1.63
A91U A117U | 1.15
U3A A95G | 1.42
A30G U72A | 0.36
A51G A126G | 0.71
A69G U127A | 1.8
C42G A111G | 0
A11U A116G | 1
A22U A36U | 1.53
U19C U72C | 0.25
U39C A90G | 0.84
G44U A59G | 1.67
A23G C61G | 1.12
A110G A140G | 0.15
G28A A114G | 0.35
A125G U127A | 1.11
A66G U131A | 1.7
U19A G48A | 1.35
A51C A52G | 1.83
U39C A47C | 1.63
A52G A55U | 1.51

Variant | self-cleavage
A22U A62U | 1.58
U3A A30G | 0.63
U57C U122A | 1.35
A118U U120A | 1.68
A30G A33G | 1.17
U70C A94U | 0.2
U57A A98C | 1.24
U70C A78U | 0.52
A54G A91G | 1.18
A36U A126G | 0.99
A24U A33G | 1.14
A94U U108C | 0.02
A56G U120C | 0.89
U108G U122C | 0.02
A67G A98U | 1.26
G15C A91U | 0.88
U9A U37C | 1.63
U43C A86G | 1.32
U72C U131C | 0.16
U72A A86U | 0.32
U19C A55U | 1.69
C109U | 0.49
G29A U131C | 0.66
U37C U43G | 1.46

Variant | self-cleavage
A110G A118G | 0.08
A23G U120C | 0.96
U38C C112A | 0
A59G C71A | 0.48
U49C A51C | 0.34
U38C G44A | 1.16
G53A A90G | 0.74
C25U A129G | 1.37
U72A G119A | 0.47
A55U A82G | 0.61
A36U G123A | 1.73
A82G U100A | 0.25
A33G A78G | 0.19
U49C A66G | 1.55
A11U | 0.87
G29C A96G | 1.67
U39C U132C | 1.12
U38A A89U | 2.11
A56C A117U | 0.96
A18G A96G | 1.44
A24G A62G | 1.27
A47U U120A | 1.19
A59G A78G | 0.26
U26A A98G | 0.3

Variant | self-cleavage
A98U A126G | 1.86
U9C U72A | 0.43
G28A A67G | 1.55
A18G A67G | 1.03
G15A A36U | 1.01
G7A A52G | 1.25
A64G G137U | 2.23
A27G A52C | 1.41
U49C U130A | 0.28
A64G A118U | 0.97
A64G A118G | 0.89
A82U A135G | 0.22
U127C U132A | 0.62
A55C U57A | 1.84
A30G A64G | 1.35
A55U A126G | 1.47
A89G A94G | 1.39
U3G A24G | 0.8
A94G A125G | 0.75
A114G G123A | 0.12
A24G A68U | 0.87
U26C G44A | 1.07
